Results from patent publication EP4047016A1 (Université de Strasbourg, dated 2022).

B1: single-domain antibody directed against Tenascin-C (TNC) Nb3 (VHH)
VHH: WLQLVESGGGSVQTGGSLRLSCVVSGYTNSIYTLAWFRQAPGKEREGVAAIGSRNGNTYYDASVKDRFTISLDKAKNTVYLQMNDLKPEDTASYYCAAGSSWDLILQAYAYDYWGQGTQVTVSS
modifications: Conjugated to 5 nm colloidal gold in the electron microscopy assay only.
notes: also called C3
B2: single-domain antibody directed against Tenascin-C (TNC) Nb4 (VHH)
VHH: WVQLVESGGGSVQTGGSLRLSCVVSGYTNSIYTLAWFRQAPGKEREGVAAIASRNGNTYYDASVKDRFTISLDKAKNTVYLQMNGLKPEDTASYYCAAGSSWDLILQAYAYDYWGQGTQVTVSS
modifications: Conjugated to 5 nm colloidal gold in the electron microscopy assay only.
notes: Dromedary VHH made in the E. coli WK6 periplasm and purified by IMAC; Conjugated to 5 nm colloidal gold for electron microscopy; also called C4

Key:
[1] = molecular target: T1, recombinant murine TNC (mTNC) (murine); assay: isothermal fluorescence titration, fluorescently tagged mTNC 700 nM, Nb 500-3500 nM
T1 construct: also called recombinant mTNC

[2] = molecular target: T2, recombinant human Tenascin-C (rhTNC) (human); assay: indirect ELISA on rhTNC, Nb dilutions 5x10^-7 M to 5x10^-12 M
T2 construct: It was purified on a Ni column, but no tag is described; also called recombinant hTNC

Row | Binder | Kd [1] [nM] | EC50 [2] [nM]
1 | B1 | 711 | ~10
2 | B2 | 537 | ~5
